Test results from US12723100 (CSPC MEGALITH BIOPHARMACEUTICAL, dated 2026).

T1: full-length human Nectin-4 on cells (human, UniProt Q96NY8 32-510)
T1 sequence: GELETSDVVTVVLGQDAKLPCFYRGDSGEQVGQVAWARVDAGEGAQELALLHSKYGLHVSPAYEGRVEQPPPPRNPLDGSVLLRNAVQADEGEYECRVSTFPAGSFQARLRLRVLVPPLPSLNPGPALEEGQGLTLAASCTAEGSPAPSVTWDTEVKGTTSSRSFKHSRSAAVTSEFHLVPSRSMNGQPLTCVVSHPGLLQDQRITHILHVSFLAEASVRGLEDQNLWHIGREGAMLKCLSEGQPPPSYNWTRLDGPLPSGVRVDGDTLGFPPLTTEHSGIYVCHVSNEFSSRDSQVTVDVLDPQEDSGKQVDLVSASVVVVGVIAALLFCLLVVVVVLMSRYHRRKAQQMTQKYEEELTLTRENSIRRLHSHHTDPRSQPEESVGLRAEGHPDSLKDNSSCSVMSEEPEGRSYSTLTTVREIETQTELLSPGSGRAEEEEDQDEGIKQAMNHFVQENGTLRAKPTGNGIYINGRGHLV

T2: human recombinant Nectin-4 protein (extracellular domain) (human, UniProt Q96NY8 32-349)
T2 construct: also called recombinant Nectin-4 (extracellular domain); human Nectin-4 recombinant protein
T2 sequence: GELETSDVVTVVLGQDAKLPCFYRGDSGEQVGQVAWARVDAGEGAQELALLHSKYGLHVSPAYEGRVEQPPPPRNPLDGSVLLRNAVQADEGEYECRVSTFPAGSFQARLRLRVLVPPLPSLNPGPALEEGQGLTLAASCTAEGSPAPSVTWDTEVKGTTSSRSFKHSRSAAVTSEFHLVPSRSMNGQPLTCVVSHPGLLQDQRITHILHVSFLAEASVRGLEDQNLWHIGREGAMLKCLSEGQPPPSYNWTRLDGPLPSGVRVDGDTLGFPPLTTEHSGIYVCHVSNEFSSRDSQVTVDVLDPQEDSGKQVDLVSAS

T3: cynomolgus monkey Nectin-4 (cynomolgus monkey, UniProt Q96NY8 32-510 (human entry))
T3 construct: Transiently expressed on 293T cells; also called Cyno Nectin-4
T3 chain: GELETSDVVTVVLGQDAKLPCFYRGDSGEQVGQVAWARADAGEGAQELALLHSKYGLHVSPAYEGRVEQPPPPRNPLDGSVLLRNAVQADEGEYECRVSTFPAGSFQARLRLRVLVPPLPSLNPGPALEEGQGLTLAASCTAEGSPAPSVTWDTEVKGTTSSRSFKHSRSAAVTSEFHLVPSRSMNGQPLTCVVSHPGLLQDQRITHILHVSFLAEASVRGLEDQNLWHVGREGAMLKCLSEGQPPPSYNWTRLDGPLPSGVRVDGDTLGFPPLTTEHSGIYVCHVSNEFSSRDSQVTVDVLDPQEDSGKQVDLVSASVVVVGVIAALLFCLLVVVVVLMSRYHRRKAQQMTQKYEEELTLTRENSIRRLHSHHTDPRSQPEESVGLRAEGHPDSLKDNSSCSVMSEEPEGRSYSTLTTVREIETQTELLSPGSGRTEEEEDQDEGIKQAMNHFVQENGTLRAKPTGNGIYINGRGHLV


Tests used:
[1] = molecular target: T1, full-length human Nectin-4 on cells; experiment: cell-based or functional assay
[2] = molecular target: T1, full-length human Nectin-4 on cells; experiment: flow cytometry, CHO-Nectin-4 cells
Description: The binding specificity of the disclosed anti-Nectin-4 antibodies was also assessed by FACS. Briefly, CHO-Nectin-4 cells (vs. parental CHO cells) or endogenous cell lines expressing Nectin-4 (T-47D) were incubated with dilutions of purified recombinant antibodies. Cells were washed, and specific antibody binding was detected with Alexa 647 labeled goat anti-mouse IgG antibody. Flow cytometric analysis was performed on a flow cytometry instrument (Intellicyte, IQue plus, Sartorius).
N4_mAb 1 to N4_mAb 8 antibodies bind to CHO-Nectin-4 cells and SKBR3 cells by FACS.

[3] = molecular target: T2, human recombinant Nectin-4 protein …; experiment: ELISA, recombinant human Nectin-4 coated on plate
Description: The binding specificity of the disclosed anti-Nectin-4 antibodies was assessed by ELISA. Briefly, human recombinant Nectin-4 protein was directly coated to ELISA plates. Purified antibodies were then added to the plates followed by detection by goat-anti-mouse IgG-HRP. After addition of ABTS substrate, ELISA plates were read using an ELISA plate reader (Bioteck). The controls depicted in FIG. 2: PC1 refers to a reference antibody (known to be a Nectin-4 specific recombinant antibody, made by Novarock Biotherapeutics, lot no: 03042020KD); the negative control is a human IgG1 (Dendritics, catalog no: DDXCH01P-100, lot no: DDXCH01-028).
The ELISA binding EC50 values of the eight anti-Nectin-4 antibodies, N4_mAb 1 to N4_mAb 8 and the positive control antibody were listed in Table 3 below.

[4] = molecular target: T3, cynomolgus monkey Nectin-4; experiment: flow cytometry, transfected 293T cells; +++ EC50 less than 5 nM
Description: CDNAs encoding Nectin-4 protein from cynomolgus monkey (SEQ ID NO: 62), rat (SEQ ID NO: 63), or mouse (SEQ ID NO: 64) were separately cloned into a pcDNA3.1-based mammalian expression plasmid. The respective plasmids were transfected to human 293T cells in a similar way described in Example 6. The binding EC50 of disclosed human Nectin-4 antibodies to species-specific Nectin-4 transiently expressed on 293T cell surface was measured by flow cytometry.

[5] = molecular target: T1, full-length human Nectin-4 on cells; experiment: flow cytometry competition on CHO-Nectin-4 cells; competitor biotinylated human Nectin-1-His
Description: The ability of disclosed Nectin4-specific antibodies to block Nectin-1 binding to Nectin-4 expressing cells (CHO cells transfected with human Nectin-4) was determined by FACS. Briefly, CHO-Nectin-4 cells were incubated with dilutions of the disclosed Nectin-4 purified recombinant antibodies. Then, biotinylated human Nectin-1 with His tag (ACROBiosystems, catalog number: PV1-H5223, lot: 733-38GS1-47, 0.75 ug/ml) was added to the plate. After 30-minute incubation, cells were washed, followed by adding Streptavidin Alexa 647 (1:1000) to the samples. After a 30 minute incubation, the samples were analyzed on a flow cytometry instrument (Intellicyte, IQue plus, Sartorius) for Nectin-1 blocking activity. The positive control antibody used in this blocking assay is a reference antibody (known to be a recombinant Nectin-4 specific antibody, made by Novarock Biotherapeutics, lot: 03042020KD).

| Binder | EC50 [2] [nM] | EC50 [3] [nM] | EC50 [4] [nM] | EC50 [5] [nM] | Endocytosis EC50 (cell killing with MMAF-conjugated Fab anti-hFc), Nectin-4-CHO cells [1] [nM] | Endocytosis EC50 (cell killing with MMAF-conjugated Fab anti-hFc), SKBR3 cells [1] [nM] |
| --- | --- | --- | --- | --- | --- | --- |
| N4_mAb 4 (antibody, human IgG1, V domains shown, Tested as chimera (human IgG1/kappa constants); not shown: human IgG1 constant region (Uniprot P01857); human Kappa light chain constant region (UniProt P01834)) VH: DVQLQESGPDLVKPSQSLSLTCTVTGYSITSAYNWHWIRQFPGNKLEWMGYIHYSGRTNYNPSLKSRISITRDTSKNQFFLQLNSLTTEDTATYYCARWITTATGWYLDVWGAGTTVTVSS VL: not shown | 0.57 | 1.12 | < 5 | – | 0.63 | 1.58 |
| N4_mAb 1 (antibody, human IgG1, V domains shown, Tested as chimera (murine variable regions, human IgG1/kappa constants); not shown: human IgG1 constant region (Uniprot P01857); human Kappa light chain constant region (UniProt P01834)) VH: QVQLKQSGPGLVQPSQSLSITCTVSGFSLTNYGVNWVRQPPGKGLEWLGVIWSGGSTDYNAAFISRLSISKDISKSQVFFKMNSLQADDTAKYYCAREGYDGYAMDYWGQGTSVTVSS VL: DIQMTQSPASLSVSVGETVTITCRASENIFSSLAWYQQKQGKSPQLLVYGATNLADGVPSRFSGSGSGTQYSLKINSLQSEDFGTYWCQHFWGNPWTFGGGTKLEIK | 0.29 | 0.14 | < 5 | 0.78 | 0.36 | 2.14 |
| N4_mAb 7 (antibody, human IgG1, V domains shown, Tested as chimera (murine variable regions, human IgG1/kappa constants); not shown: human IgG1 constant region (Uniprot P01857); human Kappa light chain constant region (UniProt P01834)) VH: QVQLQQSGPELVKPGASVKMSCKASGYTFTTYYIHWVKQRPGQGLEWIGWIYPGNAGIKSNEKFKGKTTLTADKSSSTAYMLLSSLTSEDSAIYFCARGVYFFDYWGQGTTLTVSS VL: SIVMTQTPKFLLVSAGDRVTITCKASQSVNNDVSWFQQKPGQSPKLLIYYASNRYTGVPDRFSGSGYGTDFTFTITTVQAEDLAVYFCQQDYSSPYTFGGGTKLEIK | 0.18 | 0.04 | < 5 | 0.21 | 0.21 | 0.61 |
| N4_mAb 2 (antibody, human IgG1, V domains shown, Tested as chimera (human IgG1/kappa constants); not shown: human IgG1 constant region (Uniprot P01857); human Kappa light chain constant region (UniProt P01834)) VH: QVQLKQSGPNLVQPSQSLSITCTVSGFSLTTYGAHWVRQSPGKGLEWLGVIWRGGSTDYNAAFMSRLSITKDNSKSQVFFKMNSLQADDTAIYYCAKIGYDGYAMDNWGQGTSVTVSS VL: DFQVTQSPASLSASVGETVTITCRTSENIHNYLAWYQQKQGKSPQLLVYNAKTLADGVPSRFSGSGSGTQYSLKINSLQPEDFGTYYCQHFWSSPWTFGGGTKLEIK | 0.64 | 0.12 | < 5 | 0.64 | 0.56 | 0.74 |

More lines, in order of falling EC50 [2], values ahead:

| EC50 [2] [nM] | EC50 [3] [nM] | EC50 [4] [nM] | EC50 [5] [nM] | Binder | Endocytosis EC50 (cell killing with MMAF-conjugated Fab anti-hFc), Nectin-4-CHO cells [1] [nM] | Endocytosis EC50 (cell killing with MMAF-conjugated Fab anti-hFc), SKBR3 cells [1] [nM] |
| --- | --- | --- | --- | --- | --- | --- |
| 0.75 | 1.51 | < 5 | 0.3 | N4_mAb 3 (antibody, human IgG1, V domains shown, Tested as chimera (human IgG1/kappa constants); not shown: human IgG1 constant region (Uniprot P01857); human Kappa light chain constant region (UniProt P01834)) VH: EVQLQQSGAELVKPGASVKLSCTVSGFNIKDTYMHWVKQRPEQGLEWIGRIDPANGNTKYDPKFQGKATIIADKASNTAYLQLSSLTSEDAAVYYCAHYYGSSYFAMDCWGQGTSVTVSS VL: DIVMTQSHKFMSTSVGDRVSITCKASQDVSTAVAWYQQKPGQSPKLLIYWASTRHTGVPDRFTGSGSGTDYTLTISSVQTEDLALYYCQQHYSTPLTFGAGTKLELK | 0.53 | 0.63 |
| 0.38 | 0.13 | < 5 | 0.5 | N4_mAb 5 (antibody, human IgG1, V domains shown, Tested as chimera (human IgG1/kappa constants); not shown: human IgG1 constant region (Uniprot P01857); human Kappa light chain constant region (UniProt P01834)) VH: EVQLQQSGPDLVKPGASVKISCKASGYSFTGHYMHWVKQSHGKSLEWIGRVNPNNGGSSYNQKFKDKAILTVDKSSTTAYMELRSLTSEDSAVYYCARDPLGGSYGFAYWGQGTLVTVSA VL: DIVLTQSPASLAVSLGQRATISCRASQSVTTSSYSYMHWYQQKPGQPPKLLIKYASNLESGVPARFSGSGSGTDFTLNIHPVEEEDTATYYCQHSWEIPYTFGGGTKLEMK | 0.45 | 0.85 |
| 0.23 | 0.14 | < 5 | 0.33 | N4_mAb 8 (antibody, human IgG1, V domains shown, Tested as chimera (murine variable regions, human IgG1/kappa constants); not shown: human IgG1 constant region (Uniprot P01857); human Kappa light chain constant region (UniProt P01834)) VH: QVQLQQSGPVLVKPGASVRISCKASGYTFTSYYIHWVKQRPGQGLEWIGWIYPGNVNTKYNENFRDKATLTADKSSSTSYMQLSSLTSEDSAVYFCARGIYYFDYWGQGTTLTVSS VL: IIVMTQTPKFLLVSAGDRVTITCKASQSVNNDVAWYQEKPGQSPKLLIYYASNRDTGVPDRFTGSGYGTDFTFTISTVQAEDLAVYFCHQDYSSPFTFGSGTKLEIK | 0.43 | 0.99 |
| 0.12 | 0.03 | < 5 | 0.12 | N4_mAb 6 (antibody, human IgG1, V domains shown, Tested as chimera (murine variable regions, human IgG1/kappa constants); not shown: human IgG1 constant region (Uniprot P01857); human Kappa light chain constant region (UniProt P01834)) VH: QVQLQQSGPELVKPGASVRISCKASGYTFTTYYIHWVKQRPGQGLEWIGWIYPGNVNTKYTENFKDKATLTADKSSSTAYMQLSSLTSEDSAVYFCARGLYYFDFWGQGTTLTVSS VL: SIVMTQTPKFLLVSAGDRVTITCKASQSVNNDVAWYQQKPGQSPKLLIYYASNRDTGVPDRFTGSGFGTDFTFTISSVQAEDLAVYFCQQDYSSPYTFGGGTKLEIK | 0.44 | 1.78 |
